Four molecules from publication PMC6116569, “Activity of Vsr endonucleases encoded by Neisseria gonorrhoeae FA1090 is influenced by MutL and MutS proteins” (BMC Microbiology, 2018) can be followed below.

In data set [1] the test system is MutS (Neisseria gonorrhoeae FA1090). Kind of data set: EMSA. The note with it: 0.75 uM protein, 1 mM ATP, 10 mM Ca2+, 10 mM Tris-HCl pH 7.5, 10 mM CaCl2, 0.1 mg/ml BSA, 0.15 uM substrate DNA, 0.032 uM competitor DNA, 20 ul, temperature not stated, 5% PAGE with …. A general note: Mobility shift assays separate free from complexed probe on a gel.
Data set [2] has as its target T1, MutL protein of N. gonorrhoeae FA1090, two-hybrid fusion (mutLNgo gene in pC434, plasmid pAK26) (N. gonorrhoeae FA1090, UniProt Q5F8M6 1-658).
T1 construct: MutL of Neisseria gonorrhoeae FA1090; mutLNgo gene (1977 bp) amplified from chromosomal DNA and cloned into the SalI-BamHI sites of pC434; also called gonococcal MutL protein; source: bacterial two-hybrid fusion, expressed in E. coli R721; not shown: N-terminal domain of the repressor of phage 434 (from the vector pC434), N-terminal, kept
T1 sequence (looked up): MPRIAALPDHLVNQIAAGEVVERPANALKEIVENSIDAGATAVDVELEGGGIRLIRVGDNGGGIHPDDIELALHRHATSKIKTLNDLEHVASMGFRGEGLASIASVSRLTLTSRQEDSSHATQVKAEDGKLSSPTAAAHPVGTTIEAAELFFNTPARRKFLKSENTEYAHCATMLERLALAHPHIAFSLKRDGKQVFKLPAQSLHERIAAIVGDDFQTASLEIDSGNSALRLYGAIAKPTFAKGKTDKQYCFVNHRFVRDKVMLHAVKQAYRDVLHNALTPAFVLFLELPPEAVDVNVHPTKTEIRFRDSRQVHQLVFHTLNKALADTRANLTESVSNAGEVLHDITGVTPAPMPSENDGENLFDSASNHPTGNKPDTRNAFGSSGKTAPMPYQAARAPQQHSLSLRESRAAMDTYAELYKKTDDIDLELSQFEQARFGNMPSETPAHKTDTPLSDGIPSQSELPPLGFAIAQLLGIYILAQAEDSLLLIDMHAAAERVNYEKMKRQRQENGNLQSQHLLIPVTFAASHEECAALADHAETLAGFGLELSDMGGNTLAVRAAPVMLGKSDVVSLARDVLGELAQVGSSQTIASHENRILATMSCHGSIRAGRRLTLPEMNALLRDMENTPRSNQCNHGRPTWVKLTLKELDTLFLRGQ
Kind of data set: two-hybrid; bacterial two-hybrid system (Di Lallo et al.) in E. coli R721 with lacZ as reporter: fusions to the N-terminal domains of the phage P22 and 434 repressors; an interaction represses β-galactosidase; LB with 0.1 mM IPTG, 37 °C; read-out is the ratio of Miller Units to the plasmid-less strain, a ratio below 0.5 counts as interaction. To be noted: partners not purified.

For data set [3], the target named is V.NgoAXIII endonuclease, two-hybrid fusion (ngoAXIIIV gene in pC22, plasmid pAK24) (N. gonorrhoeae FA1090). The description is as above.
For data set [4], the target named is V.NgoAXIV endonuclease, two-hybrid fusion (ngoAXIVV gene in pC22, plasmid pAK25) (N. gonorrhoeae FA1090). The description is as above.
The target in data set [5] is T2, MutS protein of N. gonorrhoeae FA1090, His-tagged, purified (plasmid pAK21) (N. gonorrhoeae FA1090, UniProt Q5F5J4 1-864).
T2 construct: MutS of Neisseria gonorrhoeae FA1090; mutS gene (2595 bp) amplified from chromosomal DNA with primers MutSNheI/MutSNgoR and cloned into the NheI-HindIII sites of pET28a(+); The His-Tag at the amino terminus is encoded by the vector; also called gonococcal MutS protein; source: E. coli BL21(DE3)pLys (pAK21), autoinduction, purified (Ni-NTA Agarose); not shown: His-Tag, N-terminal, kept
T2 sequence (looked up): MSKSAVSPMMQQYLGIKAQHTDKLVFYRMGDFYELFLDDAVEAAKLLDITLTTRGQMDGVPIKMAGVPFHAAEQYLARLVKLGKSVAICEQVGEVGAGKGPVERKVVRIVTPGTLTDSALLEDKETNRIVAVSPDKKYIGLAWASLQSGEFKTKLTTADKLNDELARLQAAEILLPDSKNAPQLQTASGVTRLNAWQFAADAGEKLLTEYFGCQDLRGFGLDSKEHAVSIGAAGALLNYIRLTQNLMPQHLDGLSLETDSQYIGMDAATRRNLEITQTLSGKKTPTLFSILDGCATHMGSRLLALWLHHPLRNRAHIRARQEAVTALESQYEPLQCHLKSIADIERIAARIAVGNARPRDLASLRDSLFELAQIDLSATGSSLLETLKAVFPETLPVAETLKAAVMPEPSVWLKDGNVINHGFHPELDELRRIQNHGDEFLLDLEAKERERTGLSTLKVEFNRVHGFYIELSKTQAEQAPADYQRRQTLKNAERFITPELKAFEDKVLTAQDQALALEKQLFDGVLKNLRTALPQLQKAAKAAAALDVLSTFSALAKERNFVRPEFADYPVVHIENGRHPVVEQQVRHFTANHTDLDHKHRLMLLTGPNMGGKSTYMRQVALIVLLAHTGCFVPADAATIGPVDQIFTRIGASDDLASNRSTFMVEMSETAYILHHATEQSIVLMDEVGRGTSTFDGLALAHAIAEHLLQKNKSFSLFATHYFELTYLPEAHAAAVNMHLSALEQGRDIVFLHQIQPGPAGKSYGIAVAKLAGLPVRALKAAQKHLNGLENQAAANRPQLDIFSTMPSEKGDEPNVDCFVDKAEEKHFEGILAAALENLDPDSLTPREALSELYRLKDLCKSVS
Kind of data set: pull-down; protein affinity chromatography: 250 μg V.NgoAXIII, V.NgoAXIV or MutLNgo coupled to Affi-Gel 10; 250 μg His-tagged MutLNgo or MutS applied in 25 mM Tris pH 7.5, 50 mM NaCl with 2 mM ATP and 5 mM MgCl2; washed with the same buffer, eluted with 250 mM NaCl; fractions blotted with an anti-His-Tag antibody. To be noted: both partners purified.

“T:G mismatch substrate used with MutS (M.NgoA302P-sub or M.NgoA1175P-sub, not specified)” yielded a binding signal in data set [1] of 90 % bound.

B1: MutS protein of N. gonorrhoeae FA1090, two-hybrid fusion used with the MutLNgo fusion (plasmid pAK27) (natural protein, UniProt Q5F5J4 1-864, looked up)
chain: MSKSAVSPMMQQYLGIKAQHTDKLVFYRMGDFYELFLDDAVEAAKLLDITLTTRGQMDGVPIKMAGVPFHAAEQYLARLVKLGKSVAICEQVGEVGAGKGPVERKVVRIVTPGTLTDSALLEDKETNRIVAVSPDKKYIGLAWASLQSGEFKTKLTTADKLNDELARLQAAEILLPDSKNAPQLQTASGVTRLNAWQFAADAGEKLLTEYFGCQDLRGFGLDSKEHAVSIGAAGALLNYIRLTQNLMPQHLDGLSLETDSQYIGMDAATRRNLEITQTLSGKKTPTLFSILDGCATHMGSRLLALWLHHPLRNRAHIRARQEAVTALESQYEPLQCHLKSIADIERIAARIAVGNARPRDLASLRDSLFELAQIDLSATGSSLLETLKAVFPETLPVAETLKAAVMPEPSVWLKDGNVINHGFHPELDELRRIQNHGDEFLLDLEAKERERTGLSTLKVEFNRVHGFYIELSKTQAEQAPADYQRRQTLKNAERFITPELKAFEDKVLTAQDQALALEKQLFDGVLKNLRTALPQLQKAAKAAAALDVLSTFSALAKERNFVRPEFADYPVVHIENGRHPVVEQQVRHFTANHTDLDHKHRLMLLTGPNMGGKSTYMRQVALIVLLAHTGCFVPADAATIGPVDQIFTRIGASDDLASNRSTFMVEMSETAYILHHATEQSIVLMDEVGRGTSTFDGLALAHAIAEHLLQKNKSFSLFATHYFELTYLPEAHAAAVNMHLSALEQGRDIVFLHQIQPGPAGKSYGIAVAKLAGLPVRALKAAQKHLNGLENQAAANRPQLDIFSTMPSEKGDEPNVDCFVDKAEEKHFEGILAAALENLDPDSLTPREALSELYRLKDLCKSVS
notes: MutS of Neisseria gonorrhoeae FA1090; mutS gene (2595 bp) amplified from chromosomal DNA and cloned into the SalI-BamHI sites of pC434 and pC22; That pAK27 is the pC22 derivative is inferred: it was paired with the pC434-borne mutLNgo gene; also called gonococcal MutS protein; source: bacterial two-hybrid fusion, expressed in E. coli R721; not shown: N-terminal domain of the repressor of phage …
Regarding B1, the “ratio of Miller Units (β-galactosidase activity) to the plasmid-less strain” value in data set [2] turned out to be 0.39 ± 0.01.

B2: MutL protein of N. gonorrhoeae FA1090, two-hybrid fusion (mutLNgo gene in pC434, plasmid pAK26) (natural protein)
chain: MPRIAALPDHLVNQIAAGEVVERPANALKEIVENSIDAGATAVDVELEGGGIRLIRVGDNGGGIHPDDIELALHRHATSKIKTLNDLEHVASMGFRGEGLASIASVSRLTLTSRQEDSSHATQVKAEDGKLSSPTAAAHPVGTTIEAAELFFNTPARRKFLKSENTEYAHCATMLERLALAHPHIAFSLKRDGKQVFKLPAQSLHERIAAIVGDDFQTASLEIDSGNSALRLYGAIAKPTFAKGKTDKQYCFVNHRFVRDKVMLHAVKQAYRDVLHNALTPAFVLFLELPPEAVDVNVHPTKTEIRFRDSRQVHQLVFHTLNKALADTRANLTESVSNAGEVLHDITGVTPAPMPSENDGENLFDSASNHPTGNKPDTRNAFGSSGKTAPMPYQAARAPQQHSLSLRESRAAMDTYAELYKKTDDIDLELSQFEQARFGNMPSETPAHKTDTPLSDGIPSQSELPPLGFAIAQLLGIYILAQAEDSLLLIDMHAAAERVNYEKMKRQRQENGNLQSQHLLIPVTFAASHEECAALADHAETLAGFGLELSDMGGNTLAVRAAPVMLGKSDVVSLARDVLGELAQVGSSQTIASHENRILATMSCHGSIRAGRRLTLPEMNALLRDMENTPRSNQCNHGRPTWVKLTLKELDTLFLRGQ
Take B2: the results for the ratio of Miller Units (β-galactosidase activity) to the plasmid-less strain in data set [3] and in data set [4] were 0.18 and 0.23, respectively.

B3: MutL protein of N. gonorrhoeae FA1090, His-tagged, purified (plasmid pAK20) (natural protein, UniProt Q5F8M6 1-658, looked up)
chain: MPRIAALPDHLVNQIAAGEVVERPANALKEIVENSIDAGATAVDVELEGGGIRLIRVGDNGGGIHPDDIELALHRHATSKIKTLNDLEHVASMGFRGEGLASIASVSRLTLTSRQEDSSHATQVKAEDGKLSSPTAAAHPVGTTIEAAELFFNTPARRKFLKSENTEYAHCATMLERLALAHPHIAFSLKRDGKQVFKLPAQSLHERIAAIVGDDFQTASLEIDSGNSALRLYGAIAKPTFAKGKTDKQYCFVNHRFVRDKVMLHAVKQAYRDVLHNALTPAFVLFLELPPEAVDVNVHPTKTEIRFRDSRQVHQLVFHTLNKALADTRANLTESVSNAGEVLHDITGVTPAPMPSENDGENLFDSASNHPTGNKPDTRNAFGSSGKTAPMPYQAARAPQQHSLSLRESRAAMDTYAELYKKTDDIDLELSQFEQARFGNMPSETPAHKTDTPLSDGIPSQSELPPLGFAIAQLLGIYILAQAEDSLLLIDMHAAAERVNYEKMKRQRQENGNLQSQHLLIPVTFAASHEECAALADHAETLAGFGLELSDMGGNTLAVRAAPVMLGKSDVVSLARDVLGELAQVGSSQTIASHENRILATMSCHGSIRAGRRLTLPEMNALLRDMENTPRSNQCNHGRPTWVKLTLKELDTLFLRGQ
notes: MutL of Neisseria gonorrhoeae FA1090; mutLNgo gene (1977 bp) amplified from chromosomal DNA with primers MutLfor/MutLNgoR and cloned into the NheI-HindIII sites of pET28a(+); The His-Tag at the amino terminus is encoded by the vector; also called MutLNgo; gonococcal MutL protein; source: E. coli BL21(DE3)pLys (pAK20), autoinduction, purified (Ni-NTA Agarose); not shown: His-Tag, N-terminal, kept
In the case of B3, the binding result in data set [5] is reported as “binds”.
